The results in this text go back to article PMC5892938, “SARNAclust: Semi-automatic detection of RNA protein binding motifs from immunoprecipitation data”.

For this data set, the target named is GST-SBP-SLBP (stem-loop binding protein) (Homo sapiens, UniProt Q14493 1-270). Nature of the data set: EMSA; 320 nM protein, 1 nM RNA, 1 mM Mg2+; EMSA: 10 mM HEPES pH 7.3, 20 mM KCl, 1 mM MgCl2, 20 mM DTT, 5% glycerol, 30 min, 4°C. RBNS: 25 mM Tris pH 7.5, 150 mM KCl, 0.1% Tween, 0.5 mg/mL BSA, 3 mM MgCl2, 1 mM DTT. To be noted: protein: recombinant; tags: N-terminal GST and SBP (pGEX6P1-SBP); label: 3' biotin; hairpin.

B1: Consensus Loop Only B (CLB) (structured_RNA)
RNA: GGUCACGUCUCAAUCAACUCAACUCCAGGAGUUUACUCCUGUAAUCUCAACAGCUCGCAGUCAAG
On to B1, for which the binding result is reported as “no binding”.
